Data: the nanobody polyreactivity screen of Harvey et al. (2022)

Assay: yeast display, Sf9 membrane polyspecificity reagent, FACS + sequencing; frameworks hold sequencing errors
Summary of the method: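 Galactose induction of a Saccharomyces cerevisiae BJ5465 synthetic nanobody display library ran 36–48 hours. The cells were then stained for 1 hour at 4 °C with 10% biotinylated, detergent-solubilized Sf9 membrane reagent, pulled down on streptavidin microbeads and FACS-sorted into low and high (top ~1%) gates on expression and reagent-binding fluorescence. Labels for polyreactivity follow the gate of origin.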

Sequence | polyreactivity (PSR sort gate)
QVQLVESGGGLVQAGGSLRLSCAASGSIFRSYAMGWYRQAPGKERELVAAISSSGGRTYYADSVKGRFTISRDNAKNTVYLQMNSLKPEDTAVYYCAAYGGGGYKYDYWGQGTQVTVSS | low polyreactivity
QVQLVESGGGLVQAGGSLRLSCAASGSIFRSYAMGWYRQAPGKERELVAGITRGGSTNYADSVKGRFTISRYNAKNTVYLQMNSLKPEDTAVYYCNADTVSLGHSLDDGDYWGQGTQVTVSS | low polyreactivity
QVQLVESGGGLVQAGGSLRLSCAASGSIFRTNAMGWYRQAPGKERELVAAISQRGGSTYYADSVKGRFTISRDNAKNTVYLQMNSLKPEDTAVYYCAAPYTQKRGYDYWGQGTLVTVSS | high polyreactivity
QVQLVESGGGLVQAGGSLRLSCAASGSIFRTNAMGWYRQAPGKERELVASISRRGGSTYYADSVKGRFTISRDNAKNTVYLQMNSLKPEDTAVYYCAAVGYYSNTLHPWWDMYYWGQGTQVTVSS | high polyreactivity
QVQLVESGGGLVQAGGSLRLSCAASGSIFRTNTMGWYRQAPGKERELVARINRGGRTYYADSVKGRFTISRDNAKNTVYLQMNSLKPEDTAVYYCAAAPFFPHWYGYDYWGQGTHVTVSS | high polyreactivity
QVQLVESGGGLVQAGGSLRLSCAASGSIFRTYVMGWYRQAPGKERELVAAITASGGRTYYADSVKGRFTISRDNAKNSVYLQMNSLKPEDTAVYYCAAVSRGRYADSFDHWGQGTQVTVSS | high polyreactivity
QVQLVESGGGLVQAGGSLRLSCAASGSIFRVNAMGWYRQAPGKERELVAAITSGGTTTYYADSVKGRFTISLDNAKNTVYLQMNSLKPEDTAVYYCSKYPYPIYHTDGDDWGQGTQVTVSS | low polyreactivity
QVQLVESGGGLVQAGGSLRLSCAASGSIFRVYAMGWYRQAPGKERELVARISRTGVSTYYADSVKGRFTISRDNAKNTVYLQMNSLKPEDTAVYYCAVLIPYSSRSYRSTWYGYWGQGTQVTVSS | high polyreactivity
QVQLVESGGGLVQAGGSLRLSCAASGSIFRVYAMGWYRRAPGKERELVATITWNGGSTYYADSVKGRFTISRDNAKNTVYLQMNSLKPEDTAVYYCAKPTSWRRVLPMDYWGQGTQVTVSS | low polyreactivity
QVQLVESGGGLVQAGGSLRLSCAASGSIFRWNAMGWNRQEPGKERELVAVINSSGGSTYYADSVKGRFTISRDNAKNTVYLQMNSLKPEDTAVYYCAKGYDTTLTYNYWGQGTQVTVSS | low polyreactivity
QVQLVESGGGLVQAGGSLRLSCAASGSIFRWNAMGWYRQAPGKERELVAAITYSGGTTYYADSVKGRFTISRDNAKNTVYLQMNSLKPEDTAVYYCAATYYDYYRLYHLGYWGQGTQVTVSS | high polyreactivity
QVQLVESGGGLVQAGGSLRLSCAASGSIFRWNSMGGYRQAPGKERELVASITSGGSTYYADSVKGRFTISRDNAKNTVYLQMNSLKPEDTAVYYCAAARYPGRKFDYWGQGTQVTVSS | high polyreactivity
QVQLVESGGGLVQAGGSLRLSCAASGSIFRWYAMGWYRQAPGKERELVAAITWSASRTYYADSVKGRFTISRDNAKNTVYLQMNSLKPEDTAVYYCAADHDGPYAGYDSWGQGTQVTVSS | low polyreactivity
QVQLVESGGGLVQAGGSLRLSCAASGSIFRYNTMGRYRQAPGKERELVATITRRGGSTYYADSVKGRFTISRDNAKNTVYLQMNSLKPEDTAVYYCNADNFGGPYNYWGQGTQVTVSS | low polyreactivity
QVQLVESGGGLVQAGGSLRLSCAASGSIFRYYAMGWYRQAPGKERELVAAIRVSTGSTSYADSVKGRFTISRDNAKKSVYLQMNSLIPAVTAVYYCNARSRLVIAYRQHNYWGQGTQVTVSS | high polyreactivity
QVQLVESGGGLVQAGGSLRLSCAASGSIFRYYAMGWYRQAPGKERELVAAISRRGSSTYYADSVKGRFTISRDNAKNTVYLQMNSLNPEDTAVYYCAAGDFKQYDYWGQGTQVTVSS | high polyreactivity
QVQLVESGGGLVQAGGSLRLSCAASGSIFRYYAMGWYRQAPGKERELVAAISSNGGSTYYADSVKGRFTISRDNAKNTVYLQMNSLKPEDTAVYYCNAVKVGPYYFRSDYWGQGTQVTVSS | high polyreactivity
QVQLVESGGGLVQAGGSLRLSCAASGSIFRYYAMGWYRQAPGKERELVAAITSSAGSTYYADSVKGRFTISRDNAKNTVYLQMNSLKPEDTAVYYCNALVQGKEYYWGQGTQVTVSS | high polyreactivity
QVQLVESGGGLVQAGGSLRLSCAASGSIFRYYAMGWYRQAPGKERELVASISWSGTSTNYADSVKGRFTISRDNAKNTVYLQMNSLKPEDTAVYYCNKVRWGRYYTRYDYWGQGTQVTVSS | high polyreactivity
QVQLVESGGGLVQAGGSLRLSCAASGSIFRYYAMGWYRQAPGKERELVASITRRGGSTYYADSVKGRFTISRDNAKNTVYLQMNSLKPEDTAFYYCAAHKTYVREYYWGQGTQVTVSS | high polyreactivity
QVQLVESGGGLVQAGGSLRLSCAASGSIFRYYAMGWYRQAPGKERELVATISWSGGGTYYADSVKGRFTISRDTAKNTVYLLMNSLKPDVTGVYYCAAVGTVPRKQRYHSYIDYDYWGQGTQVTVSS | low polyreactivity

Sequence | polyreactivity (PSR sort gate)
QVQLVESGGGLVQAGGSLRLSCAASGSIFRYYAMGWYRQAPGKERELVAVITGTGGSTYYADSVKGRFTISRDNAKNTVYLQMNSLKPEDTAVYYCNVYRPWGWFDYWGQGTQVTVSS | high polyreactivity
QVQLVESGGGLVQAGGSLRLSCAASGSIFRYYAMGWYRQAPRKERELVAAISSNGGSTSYADSVKGRFTISRDNAKNTVYLQMNSLIPEYTAVYYCNTQFRYPQKYDYWGQGTQVTVSS | high polyreactivity
QVQLVESGGGLVQAGGSLRLSCAASGSIFRYYDMGWYRQAPGKERELVAAISTSGVRTNYADSVKGRFTISRDNAKNTVYLQMNSLKPEDTAVYYCAARSQIYYRYRSYGYWGQGTQVTVSS | high polyreactivity
QVQLVESGGGLVQAGGSLRLSCAASGSIFRYYTMGWYRQAPGKERELVASISRGGNTYYADSVKGRFTISRDNAKNTVYLQMNSLKPEDTAVYYCNVRLSYSYISQSDWNFDYWGQGTQVTVSS | low polyreactivity
QVQLVESGGGLVQAGGSLRLSCAASGSIFRYYVMGWSRQAPGKERELVASISYSVGRTYYADSVKGRFTISRDNAKNTVYLQMNCLKPEDTAVYYCAADRYWPYYSAYYTSYRMDYWGQGTQVTVSS | high polyreactivity
QVQLVESGGGLVQAGGSLRLSCAASGSIFSAYAMGWYRQAPGKERELVAAISSRGSRTYYAYSVKGRFTISRDYAKNSVYLQMNSLKPEDTAVYYCAADPFSSYYKMDYWGQGTQVTVSS | high polyreactivity
QVQLVESGGGLVQAGGSLRLSCAASGSIFSAYVMGWYRQAPGKERELVAAINRGGNTYYADSVKGRFTISRDNAKNTVYLQMNSLKPEDTAVYYCNAQWYYLRYRYDYWGQGTQVTVSS | high polyreactivity
QVQLVESGGGLVQAGGSLRLSCAASGSIFSAYVMGWYRQAPGKERELVAAITRSGGSTYYADSVKGRFTISRDNAKNTVYLQMNSLKPEDTAVYYCAVDYLLHYYSYIEDYWGQGTQVTVSS | low polyreactivity
QVQLVESGGGLVQAGGSLRLSCAASGSIFSCYTMGWYRQAPGKERELVAASTTYADSVKGRFTISRDNAKNTVYLQMNSLKPEDTAVSYCATRHPARRDYWGQGTQVTVSS | low polyreactivity
QVQLVESGGGLVQAGGSLRLSCAASGSIFSENAMGWYRQAPGKERELVAAITGGASTNYADSVKGRFTISRDNAKNTVYLQMNSLKPEDNAVYYCNTGGPRGTTYDYWGQGTQVTVSS | low polyreactivity
QVQLVESGGGLVQAGGSLRLSCAASGSIFSEYAMGWYRQAPGKERELVAAISKSTGRTYYADSVKGRFTISRDNAKNTVYLQMNSLKPEDTAVYYCNAVRRAFIASYDYWGQGTQVTVSS | high polyreactivity
QVQLVESGGGLVQAGGSLRLSCAASGSIFSFYAMGWYRQAPGKEREFVAAITISDDSTYYADTVKGRFTISRDNAKNTVYLQMNSLNPEDTAVYYCNDRYLSWYFKYLYDYWGQGTQVTVSS | low polyreactivity
QVQLVESGGGLVQAGGSLRLSCAASGSIFSGNAMGWYRQAPGKERELVAAITSSGGSTYYADSVKGRFTISRDNAKNTVYLQMNSLKPEDTAVYYCAKDYYSKHFPIYDYWGQGTQVTVSS | low polyreactivity
QVQLVESGGGLVQAGGSLRLSCAASGSIFSGNAMGWYRQAPGKERELVADITFSGSSTYADSVKGRFTISRDNAKNTVYLQMNSLKPEDTAVYYCAKKRPGFLRYGSIGEFQYDYWGQGTQVTVSS | low polyreactivity
QVQLVESGGGLVQAGGSLRLSCAASGSIFSGNEMGWYRQAPGKDSELVATISWSGGSTNYADSVKGGFTISRDNAKNTVYLQMNSLKPEDTSVYYCAAVPGWVRQADGWVLSLLDYWGQGTQVTVSS | low polyreactivity
QVQLVESGGGLVQAGGSLRLSCAASGSIFSGNTMGCYRQAPGKERELVAAISGRGSNTYYADSVKGRFTISRDNAKNTVYLQMNSLKPEDTAVYYCAGPWVVRRTAYDYWGQGTQVTVSS | high polyreactivity
QVQLVESGGGLVQAGGSLRLSCAASGSIFSGYAMGWYRQAPGKERELVAAITWRAASTYYADSVKGRFTISRDNAKNTVYLQMNSLKPEDTAVYYCAKEGWPKPAFYYWGQGTQVTVSS | low polyreactivity
QVQLVESGGGLVQAGGSLRLSCAASGSIFSGYTMGWYRQAPGKERELVAAISSDGSTTYADSVKGRFTISRDNAKNTVYLQMNSLKPEDTAVYYCAAYPYWDGSYGGYDYWGQGTQVTVSS | low polyreactivity
QVQLVESGGGLVQAGGSLRLSCAASGSIFSGYVKGWYRQAPGKDMELVAAISGSGGSTYYADSVKGRFTISRDNAKNTVYFQMNSLKPEDTAVYYCNVDRSPTHIVGYGYWGQGTQVTVSS | low polyreactivity
QVQLVESGGGLVQAGGSLRLSCAASGSIFSGYVMGWYRQAPGKERELVAAISGSGGSTYYADSVKGRFTISRDNAKNTVYLQMNSLNPEDTAVYYCNKGLSRSYWWVDYWGQGTQVTVSS | low polyreactivity
